Data taken from patent US20250197451A1, “USE OF BIOACTIVE POLYPEPTIDE SYNTHESIZED ON BASIS OF KDM2B SEQUENCE IN NEURAL DIFFERENTIATION AND REGENERATION AND REPAIR OF MESENCHYMAL STEM CELLS” (CAPITAL MEDICAL UNIVERSITY SCHOOL OF STOMATOLOGY, priority 2021, published 2025).

Biological target: biotin-labelled EZH2 protein (UniProt Q15910)
Assay: KDM2B peptide array probed with biotin-EZH2 1 ug/ml, SA-HRP/ECL

Sequence of biotin-labelled EZH2 protein (Q15910 whole entry): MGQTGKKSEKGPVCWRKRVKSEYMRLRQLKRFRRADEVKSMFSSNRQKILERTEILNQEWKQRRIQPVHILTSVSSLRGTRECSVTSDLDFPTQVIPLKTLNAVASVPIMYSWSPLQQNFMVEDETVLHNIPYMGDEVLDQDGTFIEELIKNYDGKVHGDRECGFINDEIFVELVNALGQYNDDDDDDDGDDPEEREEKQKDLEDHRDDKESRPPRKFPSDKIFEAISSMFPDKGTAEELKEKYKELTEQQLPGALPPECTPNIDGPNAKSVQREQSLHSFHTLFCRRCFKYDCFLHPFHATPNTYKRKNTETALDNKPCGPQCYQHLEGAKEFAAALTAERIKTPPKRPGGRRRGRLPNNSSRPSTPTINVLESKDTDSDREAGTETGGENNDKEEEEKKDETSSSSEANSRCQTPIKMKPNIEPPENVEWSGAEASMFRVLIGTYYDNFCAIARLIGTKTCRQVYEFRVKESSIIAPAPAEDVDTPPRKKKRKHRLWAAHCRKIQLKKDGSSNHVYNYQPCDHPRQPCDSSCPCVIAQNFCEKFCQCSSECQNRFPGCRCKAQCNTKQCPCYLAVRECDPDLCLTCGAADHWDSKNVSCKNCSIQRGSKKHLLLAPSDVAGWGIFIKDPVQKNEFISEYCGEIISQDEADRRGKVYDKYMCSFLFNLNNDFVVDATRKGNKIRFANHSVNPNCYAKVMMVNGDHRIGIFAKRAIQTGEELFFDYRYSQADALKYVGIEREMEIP

In order of rising Intensity (%):
1. IYEIEDRTRVQPKFR [peptide 69]  0.15%
2. VLERYVYCVTQRSHL [peptide 74]  0.25%
3. QPKFRYPFYYEMCWY [peptide 71]  0.57%
4. LAVDYPKTPTGSPAT [peptide 98]  0.77%
5. CIMRQCIAPVLPHTA [peptide 130]  30.8%
